{"source": "patent US20080125364A1", "about": "“Methods and Compositions for Treating Epithelial Cancers” (priority 2004, published 2008)", "key": {"Pa4-Raf1 cells [1]": {"system": "Pa4-Raf1 cells", "experiment": "Transepithelial electrical resistance (TER) of monolayers on filter supports", "type": "cell-based, rat", "conditions": "Pa4-Raf1 cells expressing the construct, after 5 days of culture on semi-permeable filter supports", "description": "(§1) For transepithelial electrical resistance (TER) measurements, cells were plated on polycarbonate filters with a pore size of 0.4 μm. A Millicell-ERS volt-ohm meter (Millipore) was used to determine the TER value. All TER values were normalized for the area of the filter and were obtained by subtracting the contribution of the filter and bathing solution. Paracellular permeability to fluoresceinated dextran (FD-3; MW 3000) was assessed according to previously published methods (Sanders et al., 1995). Briefly, cells were grown on polycarbonate filters with a pore size of 0.4 μm. TER was measured and then cells were washed in Hanks balanced salt solution/10 mM HEPES (HBSS^+) and equilibrated at 37° C. for 10 min on an orbital shaker. Cells were loaded apically with 1 mg/ml FD-3 (Molecular Probes) at time=0. Basolateral samples were taken at t=0, 30, 60, 90 and 120 minutes, and fluorescence intensity was analyzed on a CytoFluor 2350 Fluorescence Measurement System (Millipore, Cambridge, Mass.). FD-3 concentrations transported were extrapolated from a standard curve (generated by diluting known concentrations of fluorescent tracer) and expressed as ng FD-3 transported/cm^2/hour. Numerical values from individual experiments were pooled and expressed as mean ±standard error of the mean. Data shown are representative of at least three experiments."}, "Pa4-Raf1 cells [2]": {"system": "Pa4-Raf1 cells", "experiment": "Tumorigenicity in nude mice", "type": "in vivo", "conditions": "Pa4-Raf1 cells expressing the construct, injected subcutaneously, 6 weeks post injection", "description": "The nude mice were used to assay tumorigenicity in vivo. Pa4 cells, Pa4-Raf1 cells and Pa4-Raf1 cells expressing fall-length occludin or various occludin mutants were grown to logarithmic growth phase, harvested, washed, and resuspended in PBS for injection. Each of the cell lines (1×10^6 cells in 200 μl PBS) was injected subcutaneously into the flanks of four male nude mice. Tumor formation was monitored daily. All nude mice were sacrificed at six weeks, with tumors being isolated and analyzed."}, "Pa4-Raf1 cells [3]": {"system": "Pa4-Raf1 cells", "experiment": "Paracellular permeability to FD-3 (3 kDa FITC-dextran)", "type": "cell-based, rat", "conditions": "Pa4-Raf1 cells expressing the construct", "description": "as §1"}, "Pa4-Raf1 cells [4]": {"system": "Pa4-Raf1 cells", "experiment": "Oligonucleotide microarray comparison of mRNA abundance", "type": "cell-based, rat", "conditions": "for correction of Raf1-driven gene expression changes (mRNA abundance): forced expression in Pa4-Raf1 cells", "description": "Based upon internal quality control data, differential expression values greater than 1.5 obtained with Agilent Oligonucleotide microarrays are likely to be significant. Using this benchmark, we compared microarray data for entire rat genome obtained from Pa-4 cells before and after stable transfection with constitutively active Raf1 (Pa4-Raf1). […] Genes affected by active Raf1 in Pa4 cells included transcription factors, response elements, regulatory molecules, growth factor receptors, cell-cell contact proteins, and cytoskeletal elements that were consistent with those identified in other studies examining epithelial cell gene modulation associated with Ras/Raf/MAP kinase pathway activation. The strongest mRNA abundance profile shifts occurred in genes associated with cell polarity, proliferation and sensitivity to apoptotic stimuli. Numerous genes identified by the present studies have been previously reported as being targets of cell regulation in other cancer cell microarray studies."}, "Pa4-Raf1 cells [5]": {"system": "Pa4-Raf1 cells", "experiment": "Phase contrast and immunofluorescence microscopy of cell morphology and junctional proteins", "type": "cell-based, rat", "conditions": "Pa4-Raf1 cells expressing the construct, grown on plastic", "description": "Cells grown on glass coverslips or on polycarbonate filters (NK, Costar, Cambridge, Mass., US) with a pore size of 0.4 μm were rinsed with HBSS containing calcium and magnesium (HBSS^+). Cells were fixed and permeabilized in absolute methanol for 20 min at −20° C., followed by blocking in HBSS^+ containing 5% normal goat serum (blocking buffer) for 1 h at room temperature and incubation for 60 min with primary antibodies to human occludin, claudin-1, and ZO-1, (Zymed Laboratories, San Francisco, Calif.), E-cadherin (BD Biosciences) in blocking buffer. Cells were then washed, incubated for 60 min with Alexa dye-conjugated secondary antibodies (Molecular Probes, Eugene, Oreg.), followed by rinsing and mounting on slides with PROLONG ANTIFADE medium (Molecular Probes). For double labeling of junctional proteins, cells were fixed and permeabilized in absolute methanol and blocked in blocking buffer. Cells were sequentially stained with two primary antibodies. Donkey anti-goat and anti-rabbit antibodies conjugated to fluorescent red or green Alexa dyes (Molecular Probes) were used for detection of the respective primary antibodies. Stained cells were scanned using a Zeiss LSM510 laser scanning confocal microscope (Zeiss Microimaging Inc., Thornwood, N.Y.) coupled to a Zeiss 100M axiovert and 40× or 63× Pan-Apochromat oil lenses. […]"}, "Pa4-Raf1 cells [6]": {"system": "Pa4-Raf1 cells", "experiment": "Cloning efficiency (anchorage-independent growth) in soft agarose", "type": "cell-based, rat", "conditions": "Pa4-Raf1 cells expressing the construct, 4 weeks, colonies >0.4 mm counted", "description": "Pa4 cells, Pa4-Raf1 cells and Pa4-Raf1 cells expressing full-length occludin or various occludin mutants were seeded a density of 1×10^4 cells per 35-mm culture dish in 1 ml of 0.35% (wt/vol) low melting point agarose solution diluted with complete medium. Dishes were coated with 1 ml of 0.7% (wt/vol) low melting point agarose before cell plating, and 1 ml of overlay medium was added after cell plating. The dishes were incubated at 35° C. in 5% CC>2 and 95% air for 4 weeks. The overlay medium was changed every 3 days. After 4 weeks, the cells were stained with 3-[4,5-dimethylthiazol-2-yl]-2,5-diphenyltetrazolium bromide (MTT; 0.05 mg/ml). The stained dishes were photographed, and colonies >0.4 mm in diameter were counted and analyzed."}}, "data": [{"molecule": "Occ: full-length human occludin with C-terminal myc-tag, stably expressed in Raf1-transformed Pa4 cells (protein, UniProt Q16625 1-522, looked up, full-length C-terminal myc-tag, full-length human occludin with C-terminal myc-tag, stably expressed in Raf1-transformed Pa4 cells) MSSRPLESPPPYRPDEFKPNHYAPSNDIYGGEMHVRPMLSQPAYSFYPEDEILHFYKWTSPPGVIRILSMLIIVMCIAIFACVASTLAWDRGYGTSLLGGSVGYPYGGSGFGSYGSGYGYGYGYGYGYGGYTDPRAAKGFMLAMAAFCFIAALVIFVTSVIRSEMSRTRRYYLSVIIVSAILGIMVFIATIVYIMGVNPTAQSSGSLYGSQIYALCNQFYTPAATGLYVDQYLYHYCVVDPQEAIAIVLGFMIIVAFALIIFFAVKTRRKMDRYDKSNILWDKEHIYDEQPPNVEEWVKNVSAGTQDVPSPPSDYVERVDSPMAYSSNGKVNDKRFYPESSYKSTPVPEVVQELPLTSPVDDFRQPRYSSGGNFETPSKRAPAKGRAGRSKRTEQDHYETDYTTGGESCDELEEDWIREYPPITSDQQRQLYKRNFDTGLQEYKSLQSELDEINKELSRLDKELDDYREESEEYMAAADEYNRLKQVKGSADYKSKKNHCKQLKSKLSHIKKMVGDYDRQKT", "values": [{"measurement": "transepithelial electrical resistance (TER)", "setting": "Pa4-Raf1 cells [1]", "value": "> 900", "unit": "O-cm^2"}, {"measurement": "tumor formation", "setting": "Pa4-Raf1 cells [2]", "value": "failed to produce tumors"}, {"measurement": "FD-3 flux rate", "setting": "Pa4-Raf1 cells [3]", "value": "−1,500 ng/cm^2/hr"}, {"measurement": "growth factor binding protein mRNA up-regulation", "setting": "Pa4-Raf1 cells [4]; Pa4 Raf1 cells, forced occludin expression", "value": 35, "unit": "fold"}, {"measurement": "aquaporin-1 mRNA levels", "setting": "Pa4-Raf1 cells [4]; Raf1-induced nearly 4-fold increase", "value": "corrected"}, {"measurement": "correction of Raf1-driven gene expression changes (mRNA abundance)", "setting": "Pa4-Raf1 cells [4]", "value": "remarkable reversal of essentially all of the genomic changes"}, {"measurement": "correction of Raf1 gene modifications of Table 1", "setting": "Pa4-Raf1 cells [4]; genes of Table 1", "value": "corrected"}, {"measurement": "REX-3 mRNA abundance", "setting": "Pa4-Raf1 cells [4]; up-regulated 37-fold by Raf1", "value": "down-regulated by occludin to an equivalent extent"}, {"measurement": "rescue of epithelial cell morphology", "setting": "Pa4-Raf1 cells [5]", "value": "recovered epithelial morphology"}, {"measurement": "rescue of epithelial cell morphology", "setting": "Pa4-Raf1 cells [5]; listed as full-length occludin", "value": "tightly clustered colonies"}, {"measurement": "average number of colonies on soft agarose", "setting": "Pa4-Raf1 cells [6]", "value": 5, "unit": "colonies"}]}, {"molecule": "claudin-1: tight junction protein claudin-1 force-expressed in Pa4-Raf1 cells (protein, UniProt O95832 1-211, looked up) Claudin-1: MANAGLQLLGFILAFLGWIGAIVSTALPQWRIYSYAGDNIVTAQAMYEGLWMSCVSQSTGQIQCKVFDSLLNLSSTLQATRALMVVGILLGVIAIFVATVGMKCMKCLEDDEVQKMRMAVIGGAIFLLAGLAILVATAWYGNRIVQEFYDPMTPVNARYEFGQALFTGWAAASLCLLGGALLCCSCPRKTTSYPTPRPYPKPAPSSGKDYV", "values": [{"measurement": "correction of Raf1-driven gene expression changes (mRNA abundance)", "setting": "Pa4-Raf1 cells [4]", "value": "fails to affect correction of gene modifications"}]}]}
